Experimental data as given in patent US20220332804A1 (CSL INNOVATION, published 2022).
Where a chain is given by its changes, count along the chain named.

How the values were obtained:
Experiment in all cases: SPR, mAb captured, C2 mutant analyte;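 further: Anti-C2 mAbs captured on goat anti-human IgG Biacore CM5 chips, alanine or serine C2 surface mutants flowed over at 37 °C, double-referenced sensorgrams fitted to a 1:1 binding model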
[1] = molecular target: T1, human C2 D431A (human, UniProt P06681 21-752)
T1 sequence: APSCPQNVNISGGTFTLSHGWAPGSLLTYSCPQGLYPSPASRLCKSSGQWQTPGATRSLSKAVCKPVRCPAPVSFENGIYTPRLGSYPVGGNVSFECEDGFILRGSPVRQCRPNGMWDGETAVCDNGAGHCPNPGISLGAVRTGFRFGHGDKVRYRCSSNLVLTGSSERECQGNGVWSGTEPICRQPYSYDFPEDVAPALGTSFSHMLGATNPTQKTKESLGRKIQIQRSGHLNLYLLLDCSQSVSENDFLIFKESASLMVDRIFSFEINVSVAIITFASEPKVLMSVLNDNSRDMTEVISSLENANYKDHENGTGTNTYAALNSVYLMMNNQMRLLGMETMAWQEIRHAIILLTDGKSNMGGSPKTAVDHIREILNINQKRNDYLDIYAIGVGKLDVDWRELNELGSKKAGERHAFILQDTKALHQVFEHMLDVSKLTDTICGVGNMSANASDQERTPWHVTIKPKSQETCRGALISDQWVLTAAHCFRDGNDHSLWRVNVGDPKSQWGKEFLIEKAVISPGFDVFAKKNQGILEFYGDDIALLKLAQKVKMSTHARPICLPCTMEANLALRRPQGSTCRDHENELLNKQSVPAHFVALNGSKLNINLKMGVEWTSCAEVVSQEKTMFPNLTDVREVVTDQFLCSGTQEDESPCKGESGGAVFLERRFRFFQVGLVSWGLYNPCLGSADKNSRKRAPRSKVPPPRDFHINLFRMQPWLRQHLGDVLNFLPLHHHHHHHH

[2] = molecular target: T2, human C2 F270A (human, UniProt P06681 21-752)
T2 sequence: T1 sequence with F250A, A411D

[3] = molecular target: T3, human C2 V448A (human, UniProt P06681 21-752)
T3 sequence: T1 sequence with A411D, V428A

[4] = molecular target: T4, human C2 A436S (human, UniProt P06681 21-752)
T4 sequence: T1 sequence with A411D, A416S

Kd [1]: 71.8 nM | binding result [2]: no binding | Kd [3]: 6.9 nM | Kd [4]: 31.2 nM
B1: RF16-214 (antibody, V domains shown)
VH: EVQLLESGGGLVQPGGSLRLSCAASGFTFSWYQMMWVRQAPGKGLEWVSRIYPSGGGTAYADSVKGRFTISRDNSKNTLYLQMNSLRAEDTAVYYCARDAGYGDNWGQGTLVTVSS
VL: QSALTQPPSVSVSPGQTASITCSGDKLGEKYASWYQQKAGQSPVMVIYQDRKRPSGIPERFSGSNSGNTATLTISGTQAMDEADYYCQAWDTRAVVFGGGTKLTVLG
